Data published in the supplement of paper PMC9170038.

Tested on: MS2 coat protein
Experiment: apparent KD of MS2 coat protein; designed switch direction (-1 OFF switch, 1 ON switch): -1; higher = weaker reporter binding
Method in brief: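 An oligonucleotide input, 200 uM small-molecule ligand, or no input was present during titration of SNAP-549-labelled MS2 coat protein, which was doubled from 0.7 or 1.5 nM to 3 µM. Designed RNA switches had been transcribed on Illumina chips by stalled E. coli RNA polymerase. Apparent KD per design is the median over clusters of curves fitted to normalised cluster fluorescence.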

[1] = Eterna round: R95, input ligand: microRNA oligo, concentration not stated
[2] = Eterna round: R95, input ligand: FMN 200 uM
[3] = Eterna round: R95, input ligand: none
[4] = input ligand: microRNA oligo, concentration not stated

## GAUCGUUUAGAGGAUAUCGUGCUAAACAUUACAUGAGAAGGCUAGACAUGAGGAUCACCCAUGUAUGCUCGUGA [Exclusion 6 - 8:b] (puzzle: Exclusion 6)
[1]
  apparent KD of MS2 coat protein: 0.0148 µM

## GAUCUGUAAGGAUAUCGUGCAAGUUUCAAAAGAGGCUUGUGCGAGAAGGUACAUGAGGAUCACCCAUGUAGGUU [Omei Ex4 B15] (Eterna round: R97, puzzle: Exclusion 4)
Input ligand: FMN 200 uM
  apparent KD of MS2 coat protein: 0.0526 µM
Input ligand: none
  apparent KD of MS2 coat protein: 0.0401 µM

## GAUGCACAUGAGGAUCACCCAUGUGAGGAUAUCAUUCCUAGAUCAGUCGGUCAGGAAAUGAGAAGGCGCCGGGA [Eternabot (L2) Solution 5] (Eterna round: R97, puzzle: Exclusion 1)
Input ligand: FMN 200 uM
  apparent KD of MS2 coat protein: 0.0286 µM
Input ligand: none
  apparent KD of MS2 coat protein: 0.0236 µM

## GAUGUGGGUUUCCGGAGUAACAUGAGGAUCACCCAUGUAGAAGUUGGAGGGAUCAAGCUUUUUGGUCGUCAUAUGUG [JR_SV3TOV1_Sub052] (puzzle: Sensor v3, turn-off variant 1)
[2]
  apparent KD of MS2 coat protein: 0.288 µM
[1]
  apparent KD of MS2 coat protein: 0.246 µM
[3]
  apparent KD of MS2 coat protein: 0.422 µM

## GAUUAUGCGAGCUUUAGGGACAUGAGGAUCACCCAUGUUCGUCUUAUUAAUCUAGGUGCGCUAACAUACCUAAAUCU [JMF 47] (puzzle: Sensor v3, turn-off variant 1)
[2]
  apparent KD of MS2 coat protein: 0.0215 µM
[1]
  apparent KD of MS2 coat protein: 0.032 µM
[3]
  apparent KD of MS2 coat protein: 0.0237 µM

## GAUUAUGCGAGCUUUAGGGACAUGAGGAUCACCCAUGUUCGUCUUAUUAGUCUGAAUACGCUGACAUACCUAAAUCU [JMF 95] (puzzle: Sensor v3, turn-off variant 1)
[2]
  apparent KD of MS2 coat protein: 0.0163 µM
[1]
  apparent KD of MS2 coat protein: 0.0195 µM
[3]
  apparent KD of MS2 coat protein: 0.0192 µM

## GAUUAUGCGAGCUUUAGGGACAUGAGGAUCACCCAUGUUCGUCUUAUUAGUCUGGGUGCACUGACAUACCUAAAUCU [JMF 93] (puzzle: Sensor v3, turn-off variant 1)
[2]
  apparent KD of MS2 coat protein: 0.169 µM
[1]
  apparent KD of MS2 coat protein: 0.202 µM
[3]
  apparent KD of MS2 coat protein: 0.32 µM

## GAUUAUGCGAGCUUUAGGGACAUGAGGAUCACCCAUGUUCGUCUUAUUGAUCUGGAUACACUAACAUACCUAAAUCU [JMF 13] (puzzle: Sensor v3, turn-off variant 1)
[2]
  apparent KD of MS2 coat protein: 0.0268 µM
[1]
  apparent KD of MS2 coat protein: 0.0323 µM
[3]
  apparent KD of MS2 coat protein: 0.0252 µM

## GAUUAUGCGAGCUUUAGGGACAUGAGGAUCACCCAUGUUCGUCUUAUUGAUCUGGGUACACUGACAUACCUAAAUCU [JMF 70] (puzzle: Sensor v3, turn-off variant 1)
[2]
  apparent KD of MS2 coat protein: 0.0888 µM
[1]
  apparent KD of MS2 coat protein: 0.115 µM
[3]
  apparent KD of MS2 coat protein: 0.11 µM

## GAUUCACAUGACUGUCUAUACAUGAGGAUCACCCAUGUUUGUUUUUAUUUUUUUUUGCUUUUUAGUCGUCUUAUUAU [1 hard RNA] (Eterna round: R97, puzzle: Sensor, turn-off variant 1)
Input ligand: FMN 200 uM
  apparent KD of MS2 coat protein: 0.0371 µM
Input ligand: none
  apparent KD of MS2 coat protein: 0.0352 µM

## GAUUCGCGAGGAUAUACAGUCGAGUCCAUUACGUGUCUGGGACUUGAGGAUCACCCAAGUAGAAGGCGUCUCAU [salish99_ex2_r4_638] (Eterna round: R97, puzzle: Exclusion 2)
Input ligand: FMN 200 uM
  apparent KD of MS2 coat protein: 0.0556 µM
Input ligand: none
  apparent KD of MS2 coat protein: 0.0578 µM

## GAUUGACAUGAGGAUCACCCAUGUGAGGAUAUCGGCUGGACCGUGUUGGCUUGCCUCUCGAGAAGGCGCAUAGG [Exclusion 1 V52] (puzzle: Exclusion 1)
[2]
  apparent KD of MS2 coat protein: 0.0388 µM
[1]
  apparent KD of MS2 coat protein: 0.035 µM
[3]
  apparent KD of MS2 coat protein: 0.0438 µM

## GAUUUUCAUGUAGGAUAUUCCACACAACAACUGGGAGAAGGACAUGAGGAUCACCCAUGUCCUACAACAACUUCAACAAACACA [Weak Sauce] (Eterna round: R96, puzzle: Exclusion NG 1)
Input ligand: FMN 200 uM
  apparent KD of MS2 coat protein: 0.0158 µM
[4]
  apparent KD of MS2 coat protein: 0.00975 µM
Input ligand: none
  apparent KD of MS2 coat protein: 0.0114 µM

## GCAAGCUUUAUCAAUAAGAACAUGAGGAUCACCCAUGUAUAAGGUAUUACUUUUGGGCUCUUUAGUGCUCGUCUUAU [JR_STOV1_Sub034] (Eterna round: R97, puzzle: Sensor, turn-off variant 1)
Input ligand: FMN 200 uM
  apparent KD of MS2 coat protein: 0.0474 µM
Input ligand: none
  apparent KD of MS2 coat protein: 0.0515 µM

## GCAAGCUUUAUCACUAUGAACAUGAGGAUCACCCAUGUAUAAGGUAUUACUUUUGGGCUCUUUAGUGCUCGUCUUAU [JR_STOV1_Sub033] (Eterna round: R97, puzzle: Sensor, turn-off variant 1)
Input ligand: FMN 200 uM
  apparent KD of MS2 coat protein: 0.0262 µM
Input ligand: none
  apparent KD of MS2 coat protein: 0.0267 µM

## GCAAGCUUUUAGAUUUUCAACAUGAGGAUCACCCAUGUUCGUCUUGUGCUCGGGCUUGGGCGGUGUCCGGGUUUGGG [JL TOV1 3.76 sellena mod] (Eterna round: R97, puzzle: Sensor, turn-off variant 1)
Input ligand: FMN 200 uM
  apparent KD of MS2 coat protein: 0.0362 µM
Input ligand: none
  apparent KD of MS2 coat protein: 0.0383 µM

## GCAAUGAGUGUGAGGAUAUGCUGGUCCUUGGAUCAGCAGAAGGCACAUGAGGAUCACCCAUGUGAAAACAUUGC [Mat - Exclusion 4 - JL Mod - D63] (puzzle: Brourd's mod of Exclusion 4)
[2]
  apparent KD of MS2 coat protein: 0.147 µM
[1]
  apparent KD of MS2 coat protein: 0.0174 µM
[3]
  apparent KD of MS2 coat protein: 0.0231 µM

## GCACCGUCAGGAUAUACAUGAGGAUCACCCAUGUGACCACCACUGUUCAUGACGCAUUGUAGAAGGGACGGAAA [Eternabot (L2) Solution 47] (Eterna round: R97, puzzle: Exclusion 3)
Input ligand: FMN 200 uM
  apparent KD of MS2 coat protein: 0.25 µM
Input ligand: none
  apparent KD of MS2 coat protein: 0.0547 µM

## GCACGAAGUGUAGGAUAUCUGUGCGAUUAGCUCAGAGAAGGACACAUGAGGAUCACCCAUGUGUUCCAAUACUCAAAUACGUGC [Eli exng1 - 0622] (Eterna round: R96, puzzle: Exclusion NG 1)
Input ligand: FMN 200 uM
  apparent KD of MS2 coat protein: 0.0101 µM
[4]
  apparent KD of MS2 coat protein: 0.00909 µM
Input ligand: none
  apparent KD of MS2 coat protein: 0.0122 µM

## GCACGAAGUGUAGGAUAUCUGUGCGAUUAGCUCAGAGAAGGACACAUGAGGAUCACCCAUGUGUUCCAAUCACAAAAUACGUGC [Eli exng1 - 060] (Eterna round: R96, puzzle: Exclusion NG 1)
Input ligand: FMN 200 uM
  apparent KD of MS2 coat protein: 0.0117 µM
[4]
  apparent KD of MS2 coat protein: 0.011 µM
Input ligand: none
  apparent KD of MS2 coat protein: 0.0119 µM

## GCACGAAGUGUAGGAUAUCUGUGCGAUUAGCUCAGAGAAGGACACAUGAGGAUCACCCAUGUGUUCCAGCGAAAGCAAACGUGC [Eli exng1 - 055] (Eterna round: R96, puzzle: Exclusion NG 1)
Input ligand: FMN 200 uM
  apparent KD of MS2 coat protein: 0.00968 µM
[4]
  apparent KD of MS2 coat protein: 0.00778 µM
Input ligand: none
  apparent KD of MS2 coat protein: 0.0129 µM

## GCACGACAUCAGGAUAUGACUAGCUUCGGCUAGUCAGAAGGGAUGACAUGAGGAUCACCCAUGUGAUCACGUGC [E6/2-B1] (Eterna round: R97, puzzle: Exclusion 6)
Input ligand: FMN 200 uM
  apparent KD of MS2 coat protein: 0.122 µM
Input ligand: none
  apparent KD of MS2 coat protein: 0.0918 µM
